Positions count from the first letter of the chain named.

Assay [1] addresses T1, human secretogranin III (Scg3) (human, UniProt Q8WXD2 20-468, limits assumed).
T1 construct: also called human Scg3; 1B1075
Briefly: method not given; protein pulldown with protein G beads at 5 ug/ml each is described in paragraph 100. On the procedure:
Protein pulldown. Scg3 (5 μg/ml) was incubated with aflibercept, VEGFR-Fc or VEGFR2-Fc (5 μg/ml) in PBS solution containing 0.5% Triton X-100 and BSA (1 mg/ml) for 1 h at 4° C. Protein G beads (20 μl) were added and incubated at 4° C. for 30 min with end-over-end rotation. The beads were washed three times with PBS by centrifugation, eluted with low pH buffer (100 mM glycine, pH 2.7) and analyzed by Western blot using anti-Scg3 pAb.

The target in assay [2] is T1, human secretogranin III (Scg3). Briefly: ELISA on immobilised Scg3 and Octet RED96. The method, then:
(§1) Competitive binding to Scg3 was evaluated for Clone 49 and the other anti-Scg3 mAbs described in Table 1. Anti-Scg3 scFv Clone 49 (FIG. 3D) and Clone 78 (FIG. 3E) were expressed and purified. […] Bound scFv was detected by ELISA assay. Binding assays were also performed using an Octet RED96 system (Pall ForteBio), as described in Estep et al., MAbs 2013; 5:270-278.
In general terms: ELISA stands for enzyme-linked immunosorbent assay.

Assay [3] shares this target. The assay is described as follows: competition ELISA (excess mAb against Clone 78 scFv) and Octet RED96. The method, then: as §1

T1 sequence (Q8WXD2 20-468 limits assumed): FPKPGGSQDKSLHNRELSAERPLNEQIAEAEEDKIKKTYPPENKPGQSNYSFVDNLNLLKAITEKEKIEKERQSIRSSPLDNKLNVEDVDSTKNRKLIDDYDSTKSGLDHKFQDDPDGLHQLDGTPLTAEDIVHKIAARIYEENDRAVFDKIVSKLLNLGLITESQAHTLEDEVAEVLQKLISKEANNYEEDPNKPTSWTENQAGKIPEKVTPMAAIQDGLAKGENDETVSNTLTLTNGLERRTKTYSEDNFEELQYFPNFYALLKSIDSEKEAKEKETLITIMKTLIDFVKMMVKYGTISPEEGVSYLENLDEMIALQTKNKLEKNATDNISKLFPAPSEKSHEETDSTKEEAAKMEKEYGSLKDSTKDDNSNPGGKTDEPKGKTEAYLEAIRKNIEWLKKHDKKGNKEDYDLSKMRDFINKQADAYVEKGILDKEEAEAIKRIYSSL

B1: aflibercept (Fc fusion, UniProt P17948 129-230, looked up)
chain: SDTGRPFVEMYSEIPEIIHMTEGRELVIPCRVTSPNITVTLKKFPLDTLIPDGKRIIWDSRKGFIISNATYKEIGLLTCEATVNGHLYKTNYLTHRQTNTIIDVVLSPSHGIELSVGEKLVLNCTARTELNVGIDFNWEYPSSKHQHKKLVNRDLKTQSGSEMKKFLSTLTIDGVTRSDQGLYTCAASSGLMTKKNSTFVRVHEK
notes: also called EYLEA; not shown: human IgG Fc
Regarding B1, the binding result in assay [1] is “no binding”.

B2: anti-Scg3 mAb Clone 49 (antibody, V domains shown)
VH: EVKLEESGAELVKPGASVKLSCTASGFNIKDTYMHWVKQRPEQGLEWIGRIDPANGDTKYDPKFQGKATITADTSSNTAYLQLSSLTSEDTAVYYCARNGPGTPWFAYWGQGTLVTVSA
VL: DIQMTQSSSYLSVSLGGRVTITCKASDHINNWLTWYQQKPGNAPRLLISGATSLETGVPSRFSGSGSGKDYTLSITSLQTEDVATYYCQQYWSTPFTFGSGTKLEIKR
notes: also called Clone 49 mAb; CLONE 49 Monoclonal Antibody
Take B2: in assay [2], the binding result is on record as “binds”.

B3: anti-Scg3 mAb Clone 153 (antibody, V domains shown)
VH: GRKLQESGPELLKPGASVKISCKTSGYIFSTSWMNWVKQRPGQGLEWIGRIYPGDGHTNYNGKFKDKATLTADKSSSTAYMQLSSLTSVDSAVYFCARSADGYFFVYWGQGTLVTVSA
VL: DIVLTQTPLSLPVSLGDQASISCRSSQSIVHSNGNTYLEWYLQKPGQSPKLLIFKVSKRFSGVPDRFSGSGSGTDFTLKISRVEAEDLGVYHCFQGSHVPPTFGGGTKLEIKR
notes: Monoclonal antibody
For the molecule B3, the binding result in assay [3] is given as “binds”.

B4: anti-Scg3 mAb Clone 78 (antibody, V domains shown)
VH: B3 VH with G1E, R2V, K3Q, E6Q, T31A, F64I, Y107D
VL: B3 VL with L4M, L9V, S61Y
notes: also called Clone 78 mAb; CLONE 78 Monoclonal Antibody
Regarding B4, in assay [2], the binding result is “binds”.

B5: anti-Scg3 mAb Clone 162 (antibody, V domains shown)
VH: B3 VH with G1P, R2G, L4A, Q5E, L11M, V89A
VL: B3 VL with S28N, V30I
notes: Monoclonal antibody
B5: the binding result in assay [3] is listed as “binds”.

B6: anti-Scg3 mAb Clone 190 (antibody, V domains shown)
VH: B3 VH with G1E, R2V, Q5E, T31S, L113P
VL: B3 VL with L4M, T7S, E84G, V90I, H92Y
notes: Monoclonal antibody; also called CLONE 190 Monoclonal Antibody
Regarding B6, the binding result in assay [3] is given as “binds”.

(Values after US20220356237A1 (UNIVERSITY OF MIAMI, published 2022).)
